B1: minF1; a variant is named by its letters at N, in order (parent)
chain: GAGACCGCAACTGAAAAGTTGTTNNNNAANNNNGGNTNNATTTCTGCACGTAGAAGCAAAAGGC

The variants in this data set derive from B1. As to the kind of experiment: fraction ligated after 30 min (ligated reads / total reads); higher = more ligase activity. Conditions: with F1*subA RNA substrate (template-directed ligation), 42 °C. As for the experimental part: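 Chip-synthesised pool of minF1 ligase ribozyme variants (single and double substitutions, single to quadruple deletions, bulge and P2 designed variants) was transcribed with T7 and reacted as a pool with excess substrate F1*subA for 30 min at 42 C in 50 mM EPPS pH 8.5, 25 mM MgCl2. Ligated and unligated RNAs were separated by PAGE, barcoded by RT and deep sequenced; fraction ligated = ligated reads / total reads, relative activity = FL / FL of wild-type minF1 (0.76); sequencing FL correlated with PAGE (R2 = 0.98). Sequences are the DNA template of the ribozyme.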
Consider GAGACCGCAACTGAAAAGTTGTTACAAAATGAGGGTTGAATTTCTGCACGTAGAAGCAAAAGGC, for which the fraction ligated was determined as 0.000748.

In the case of GAGACCGCAACTGAAAAGTTGTTATAGAAATGATGGGTTATTTCTGCACGTAGAAGCAAAAGGC, the fraction ligated worked out at 0.00193.

Regarding GAGACCGCAACTGAAAAGTTGTTACAAAATGGTGGTTGAATTTCTGCACGTAGAAGCAAAAGGC, the fraction ligated was 0.00142.

In the case of GAGACCGCAACTGAAAAGTTGTTATCAGAAAGATGGTTGATTTCTGCACGTAGAAGCAAAAGGC, the fraction ligated turned out to be 0.00562.

For the variant GAGACCGCAACTGAAAAGTTGTTCAGAATGGTGGGTTGAATTTCTGCACGTAGAAGCAAAAGGC, the fraction ligated was found to be 0.00368.

Turning to GAGACCGCAACTGAAAAGTTGTTATCAGATGATGGGTTAATTTCTGCACGTAGAAGCAAAAGGC, the fraction ligated was 0.00257.

On to GAGACCGCAACTGAAAAGTTGTTATCGAAATGATGGTTAATTTCTGCACGTAGAAGCAAAAGGC, for which the fraction ligated was determined as 0.00167.

Regarding GAGACCGCAACTGAAAAGTTGTTACAGAAAGGGGGTTGAATTTCTGCACGTAGAAGCAAAAGGC, the fraction ligated turned out to be 0.00282.

For GAGACCGCAACTGAAAAGTTGTTAAGAAATGATGGGTTGATTTCTGCACGTAGAAGCAAAAGGC, the fraction ligated came out at 0.00397.

As for GAGACCGCAACTGAAAAGTTGTTATAGAATGGAGGGTTGATTTCTGCACGTAGAAGCAAAAGGC, the fraction ligated came out at 0.00518.

Take GAGACCGCAACTGAAAAGTTGTATCAGAATGAGGGTTGAATTTCTGCACGTAGAAGCAAAAGGC: the fraction ligated was determined as 0.0046.

Take GAGACCGCAACTGAAAAGTTGTTTCAGAAAGGTGGTTGAATTTCTGCACGTAGAAGCAAAAGGC: the fraction ligated was found to be 0.00136.

With GAGACCGCAACTGAAAAGTTGTTACAGATGGATGGTTGAATTTCTGCACGTAGAAGCAAAAGGC, the fraction ligated stood at 0.00506.

As for GAGACCGCAACTGAAAAGTTGTTATCAGAAATGAGGTTAATTTCTGCACGTAGAAGCAAAAGGC, the fraction ligated came out at 0.00267.

As to GAGACCGCAACTGAAAAGTTGTTATCAGAAATGTGGTTAATTTCTGCACGTAGAAGCAAAAGGC, the fraction ligated came to 0.00212.

Turning to GAGACCGCAACTGAAAAGTTGTTAAGAAATGGATGGGTTATTTCTGCACGTAGAAGCAAAAGGC, the fraction ligated stood at 0.00134.

GAGACCGCAACTGAAAAGTTGTATCAGAAATGGAGGTTGATTTCTGCACGTAGAAGCAAAAGGC: the fraction ligated stood at 0.00659.

Take GAGACCGCAACTGAAAAGTTGTTATCAAAATGGTGGTTAATTTCTGCACGTAGAAGCAAAAGGC: the fraction ligated was found to be 0.0029.

For GAGACCGCAACTGAAAAGTTGTATCGAAAGATGGGTTGAATTTCTGCACGTAGAAGCAAAAGGC, the fraction ligated was 0.00396.

For the variant GAGACCGCAACTGAAAAGTTGTTTCAGAAATGGAGGTTAATTTCTGCACGTAGAAGCAAAAGGC, the fraction ligated was 0.00212.

With GAGACCGCAACTGAAAAGTTGTTACAGAATGGATGGTTAATTTCTGCACGTAGAAGCAAAAGGC, the fraction ligated came to 0.0155.

As to GAGACCGCAACTGAAAAGTTGTTCAGAAAGGATGGGTTAATTTCTGCACGTAGAAGCAAAAGGC, the fraction ligated amounted to 0.000794.

Consider GAGACCGCAACTGAAAAGTTGTTATCGAAGGTGGGTTGAATTTCTGCACGTAGAAGCAAAAGGC, for which the fraction ligated worked out at 0.00323.

On to GAGACCGCAACTGAAAAGTTGTTACAGAAAGGTGGTTGAATTTCTGCACGTAGAAGCAAAAGGC, for which the fraction ligated came out at 0.00073.

With GAGACCGCAACTGAAAAGTTGTTATCAGAAATGAGGGTTATTTCTGCACGTAGAAGCAAAAGGC, the fraction ligated amounted to 0.0014.

On to GAGACCGCAACTGAAAAGTTGTTATCAAATGTGGGTTGAATTTCTGCACGTAGAAGCAAAAGGC, for which the fraction ligated was found to be 0.00648.

On to GAGACCGCAACTGAAAAGTTGTTTCAGAATGGTGGTTGAATTTCTGCACGTAGAAGCAAAAGGC, for which the fraction ligated is 0.00261.

As for GAGACCGCAACTGAAAAGTTGTTACAGAAAGGTGGGTTAATTTCTGCACGTAGAAGCAAAAGGC, the fraction ligated turned out to be 0.00348.

As to GAGACCGCAACTGAAAAGTTGTTACAGAATGGTGGTTGAATTTCTGCACGTAGAAGCAAAAGGC, the fraction ligated is 0.00127.

As to GAGACCGCAACTGAAAAGTTGTTAAGAAATGTGGGTTGAATTTCTGCACGTAGAAGCAAAAGGC, the fraction ligated turned out to be 0.00241.

Consider GAGACCGCAACTGAAAAGTTGTTTCAGAAATGAGGGTTGATTTCTGCACGTAGAAGCAAAAGGC, for which the fraction ligated was 0.00463.

For GAGACCGCAACTGAAAAGTTGTTATCAGAAAGTGGGTTGATTTCTGCACGTAGAAGCAAAAGGC, the fraction ligated was 0.00272.

With GAGACCGCAACTGAAAAGTTGTATAGAAATATGGGTTGAATTTCTGCACGTAGAAGCAAAAGGC, the fraction ligated stood at 0.00255.

On to GAGACCGCAACTGAAAAGTTGTACAGAAATGATGGGTTAATTTCTGCACGTAGAAGCAAAAGGC, for which the fraction ligated was determined as 0.00233.

In the case of GAGACCGCAACTGAAAAGTTGTATAAAATGGATGGGTTAATTTCTGCACGTAGAAGCAAAAGGC, the fraction ligated stood at 0.000932.

Take GAGACCGCAACTGAAAAGTTGTTTCGAATGGATGGGTTGATTTCTGCACGTAGAAGCAAAAGGC: the fraction ligated stood at 0.0133.

Regarding GAGACCGCAACTGAAAAGTTGTTTAGAAAGGATGGGTTAATTTCTGCACGTAGAAGCAAAAGGC, the fraction ligated worked out at 0.000988.

In the case of GAGACCGCAACTGAAAAGTTGTTATCAAAATGTGGGTTGATTTCTGCACGTAGAAGCAAAAGGC, the fraction ligated amounted to 0.00785.

With GAGACCGCAACTGAAAAGTTGTATAGAAAGGATGGTTGAATTTCTGCACGTAGAAGCAAAAGGC, the fraction ligated was 0.00191.

Turning to GAGACCGCAACTGAAAAGTTGTATCAGAAATGGTGGTTAATTTCTGCACGTAGAAGCAAAAGGC, the fraction ligated was determined as 0.00312.

Take GAGACCGCAACTGAAAAGTTGTATCAGAAAGGAGGGTTAATTTCTGCACGTAGAAGCAAAAGGC: the fraction ligated is 0.00164.

As for GAGACCGCAACTGAAAAGTTGTTATAAAATGTGGGTTGAATTTCTGCACGTAGAAGCAAAAGGC, the fraction ligated is 0.00221.

The record behind these values is the supplement of paper PMC6755084.
